Data reported in the RNAGym collection of RNA variant scans (doi:10.1021/acssynbio.7b00057).

B1: Pistol ribozyme (parent)
chain: GGGUCGUUGUUCCAUAAUCGCGUGGAUAUGGCACGCAAGUUUCUACCGGGCACCGUAAAUGUCCGACUGGAGCCGUUCGGGCGGCUAUAAACAGACCUCAGGCCCGAAGCGUGGCGGCACCUGCCGCCGGUGGUAAAAAAGAUCGGAAGAGCACACGUCU

Variants of: B1
Test: aptazyme ON/OFF ratio, guanine; higher = stronger switching; co-transcriptional cleavage with and without guanine

In order of falling “aptazyme ON/OFF ratio” value:
1. U8C G9A U11G  1.45
2. U8C G9A U11G C12U C13A  1.34
3. U8C G9C U10C U11G C13G  1.31
4. U8C G9A U11G C12U C13G  1.29
5. U8C G9A U11G C12A C13G  1.29
6. U8C G9A U11G C13G  1.27
7. U8C G9C U10A U11C C12G C13U  1.27
8. U8C G9A U11G C12A C13U  1.27
9. U8C G9C U10A C12G  1.25
10. U8C G9A U11A  1.25
11. U8C G9C U10A U11A C12G  1.25
12. U8C G9C U10A U11C C12A  1.24
13. U8C G9A U10G U11G C12U  1.24
14. U8C G9A U11G C13A  1.23
15. U8C G9A U11A C12G C13U  1.23
16. U8C G9A U10G U11C C12G  1.23
17. U8C G9A U10G U11C C12A  1.23
18. U8C G9C U10A U11C C13A  1.23
19. U8C G9C U10A U11C C12G C13A  1.23
20. U8C G9C U10A U11G C12U C13U  1.22
21. U8C G9C U11A C12A  1.22
22. U8C G9A U11G C12U C13U  1.22
23. U8C G9A U11A C13U  1.22
24. U8C G9A U11G C12A C13A  1.22
25. U8C G9A U10G U11G C12U C13U  1.22
26. U8C G9C U10G U11C C12A  1.22
27. U8C G9C U10A U11C C12U  1.21
28. U8C G9A U10G U11G C12G  1.21
29. U8C G9C U10G U11C C12G  1.21
30. U8C G9C U10A C12G C13U  1.2
31. U8C G9C U10A C12G C13A  1.2
32. U8C G9A U11A C12G C13G  1.2
33. U8C G9C U10A U11C C13G  1.2
34. U8C G9A U11A C13A  1.2
35. U8C G9C U10A U11C C12G  1.2
36. U8C G9C U10A U11G C13A  1.2
37. U8C G9C U10A U11G C13G  1.2
38. U8C G9A U10G U11G C12A C13U  1.2
39. U8C G9C U10A U11G C12U C13A  1.19
40. U8C G9C U10A U11G C12G C13A  1.19
41. U8C G9C U10A U11C C12U C13A  1.19
42. U8C G9C U10A U11C C12U C13U  1.19
43. U8C G9C C12G  1.19
44. U8C G9C U11A C12G  1.18
45. U8C G9C U10G U11C C12G C13G  1.18
46. U8C G9C U10A U11A C12G C13G  1.18
47. U8C G9C U10A U11A C13G  1.17
48. U8C G9C U10A U11C C12U C13G  1.17
49. U8C G9C U11A C12G C13A  1.17
50. U8C G9C U10G U11C C12G C13U  1.17
51. U8C G9C U10C U11G C13U  1.17
52. U8C G9C U10A C13G  1.16
53. U8C G9C U10A U11C C12G C13G  1.16
54. U8C G9C C12A  1.16
55. U8C G9C U10A U11G C12U C13G  1.15
56. U8C G9A U11G C13U  1.15
57. U8C G9C U10A C12G C13G  1.15
58. U8C G9C U10A U11A C13A  1.15
59. U8C G9C U10G U11G C12A  1.15
60. U8C G9C U11A C12G C13G  1.15
61. U8C G9A U10G U11G C12A C13A  1.15
62. U8C G9C U10A C12U C13U  1.14
63. U8C G9A U11A C12G C13A  1.14
64. U8C G9C U10A U11C C13U  1.14
65. U8C G9C U10G U11C C12G C13A  1.14
66. U8C G9C U10C U11G C13A  1.14
67. U8C G9A U10G U11G C12A C13G  1.14
68. U8C G9C U10A C12U  1.13
69. U8C G9C U10G U11G C12U C13G  1.13
70. U8C G9C U10C U11G C12G C13A  1.13
71. U8C G9C U10G U11A C12G C13G  1.13
72. U8C G9C U10G U11G C12G C13A  1.13
73. U8C G9C U10G C12A C13A  1.13
74. U8C G9C U10G U11G C12G  1.13
75. U8C G9C U10A U11G C13U  1.13
76. U8C G9C U10A C12U C13G  1.12
77. U8C G9C U11A C12U C13A  1.12
78. U8C G9C U11A C12U C13G  1.12
79. U8C G9C U10A U11A C12A  1.12
80. U8C G9C U10A U11A C12G C13U  1.12
81. U8C G9A U10G U11G C12A  1.12
82. U8C G9C U10C C12G C13G  1.12
83. U8C G9C U10A C12A  1.11
84. U8C G9C U10G U11A C12G C13U  1.11
85. U8C G9C U10A U11G C12G C13G  1.11
86. U8C G9C U10G U11G C12G C13U  1.11
87. U8C G9C U10C U11G C12G  1.11
88. U8C G9C U10G U11G C13G  1.11
89. U8C G9C U10G U11G C13A  1.11
90. U8C G9C C12A C13U  1.1
91. U8C G9C C12A C13G  1.1
92. U8C G9C U10G U11G C12G C13G  1.1
93. U8C G9C U10C U11G C12A  1.1
94. U8C G9A U10G U11G C12U C13G  1.1
95. U8C G9C U10A U11A C12G C13A  1.1
96. U8C G9C U10G U11G C12U C13U  1.09
97. U8C G9C U10C U11G C12G C13G  1.09
98. U8C G9A U11C  1.09
99. U8C G9C U10A U11G C12G C13U  1.09
100. U8C G9C U10A U11A C13U  1.09
101. U8C G9C U10G C12A C13U  1.09
102. U8C G9C U10G U11G C12U  1.09
103. U8C G9A U10G U11G C12U C13A  1.09
104. U8C G9C U11A C12U  1.08
105. U8C G9C C12A C13A  1.08
106. U8C G9C U10C U11G C12G C13U  1.08
107. U8C G9C U10A C12U C13A  1.08
108. U8C G9C U10G U11A C12G C13A  1.08
109. U8C G9C U10C U11A C13G  1.08
110. U8C G9C U10A C13A  1.08
111. U8C G9C U10G C12A C13G  1.08
112. U8C G9C U10G U11A C12U C13G  1.08
113. U8C G9C C13U  1.08
114. U8C G9C C12U  1.08
115. U8C G9C U11C C12A  1.08
116. U8C G9C U10C C12G C13U  1.08
117. U8C G9C U10C U11C C12G  1.08
118. U8C G9C U10G U11G C12U C13A  1.07
119. U8C G9C U10A C13U  1.07
120. U8C G9A U10G U11C C12U  1.07
121. U8C G9C U11A C12U C13U  1.07
122. U8C G9C U11A C12G C13U  1.07
123. U8C G9C U10C U11G C12U  1.07
124. U8C G9C U10C C12U C13G  1.07
125. U8C G9C U10C C12U  1.07
126. U8C G9C U10G U11G C13U  1.07
127. U8C G9C U10C C12G C13A  1.07
128. U8C G9A U10G U11G  1.06
129. U8C G9C U10G U11A C12U C13A  1.06
130. U8C G9C C13G  1.06
131. U8C G9C U10C C12U C13U  1.06
132. U8C G9C U10C C12A  1.06
133. U8C G9C U10C C12G  1.06
134. U8C G9C U10C U11C C12U C13A  1.05
135. U8C G9A U10G U11C  1.05
136. U8C G9C U10A U11A C12U  1.05
137. U8C G9C C13A  1.05
138. U8C G9C U10C U11A C12A C13G  1.05
139. U8C G9C U10G U11C C12U  1.05
140. U8C G9C U10C U11A C13U  1.04
141. U8C G9C U10C U11C C12A C13G  1.04
142. U8C G9C U10G U11A C12U C13U  1.04
143. U8C G9C U10C U11A C12A  1.04
144. U8C G9A U11A C13G  1.04
145. U8C G9C U10C U11C C13G  1.04
146. U8C G9C U10C U11A C12A C13A  1.04
147. U8C G9C U11C C12A C13A  1.03
148. U8C G9C U10C U11A C12U C13G  1.02
149. U8C G9C U10C U11A C12U C13A  1.02
150. U8C G9A U10G U11A  1.02
151. U8C G9C U10C U11C C12A C13U  1.02
152. U8C G9C U10C U11C C12A C13A  1.02
153. U8C G9C U10C U11A C12U  1.02
154. U8C G9C U10C U11A C12A C13U  1.02
155. U8C G9C U10C U11A  1.02
156. U8C G9C U10C C12U C13A  1.02
157. U8C G9C U10C U11C C12A  1.02
158. U8C G9C U10C U11A C12U C13U  1.01
159. U8C G9C U10C U11C C12U C13U  1.01
160. U8C G9C U10C U11A C13A  1.01
161. U8C G9C U10C U11A C12G  1.01
162. U8C G9C U10C U11C C13A  1.01
163. U8C G9C U10C U11C C12U C13G  1
164. U8C G9C U10C U11C C12U  0.966
165. U8C G9C U10C U11C  0.964
166. U8C G9C U10C U11C C13U  0.96
167. U8C G9C U10C U11G  0.956
